Measured values taken from patent US20030021765A1 (Biogen, published 2003).
Changes are numbered by the printed parent chain.

T1: IFNAR2/Ig fusion protein (IFNAR2 extracellular domain fused to the hinge, CH2 and CH3 domains of human IgG1) (human, UniProt P48551 27-243)
T1 construct: extracellular domain; also called IFNAR2/Fc; IFNAR2-Fc; not shown: human IgG1 constant region: hinge, CH2 and CH3 domains
T1 sequence (looked up): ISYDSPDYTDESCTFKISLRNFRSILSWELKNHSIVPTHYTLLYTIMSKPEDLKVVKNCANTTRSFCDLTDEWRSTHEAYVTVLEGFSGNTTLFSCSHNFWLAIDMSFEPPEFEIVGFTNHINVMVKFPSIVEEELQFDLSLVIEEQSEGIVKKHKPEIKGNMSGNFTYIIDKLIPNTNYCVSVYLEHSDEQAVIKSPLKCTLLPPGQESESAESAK

B1: his tagged-interferon-beta alanine substitution mutant A2 (ligand)
chain: SGGHHHHHHSSGDDDDKMSYNLLGFLQRSSNAACAALLAALNGRLEYCLKDRMNFDIPEEIKQLQQFQKEDAALTIYEMLQNIFAIFRQDSSSTGWNETIVENLLANVYHQINHLKTVLEEKLEKEDFTRGKLMSSLHLKRYYGRILHYLKAKEYSHCAWTIVRVEILRNFYFINRLTGYLRN
notes: Tested as EBNA 293 conditioned medium; also called A2 helix mutant
B2: his tagged-interferon-beta alanine substitution mutant AB1 (ligand)
chain: SGGHHHHHHSSGDDDDKMSYNLLGFLQRSSNFQCQKLLWQLNGRAAACAADRMNFDIPEEIKQLQQFQKEDAALTIYEMLQNIFAIFRQDSSSTGWNETIVENLLANVYHQINHLKTVLEEKLEKEDFTRGKLMSSLHLKRYYGRILHYLKAKEYSHCAWTIVRVEILRNFYFINRLTGYLRN
notes: Tested as EBNA 293 conditioned medium
B3: his tagged-interferon-beta alanine substitution mutant AB2 (ligand)
chain: B2 chain with A45L, A46E, A47Y, A49L, A50K, M53A, N54A, D56A, E59A
notes: as for B2
B4: his tagged-interferon-beta alanine substitution mutant E (ligand)
chain: B2 chain with A45L, A46E, A47Y, A49L, A50K, V165A, R169A, Y172A, N175A
notes: also called E helix mutant
B5: his tagged-wild-type interferon-beta-1a (ligand)
chain: B2 chain with A45L, A46E, A47Y, A49L, A50K
notes: Expressed in human EBNA 293 cells and tested as conditioned medium; also called wild type his-IFN-beta; w.t. his-IFN-beta

The binders below were run against T1, IFNAR2/Ig fusion protein (IFNAR2 …) (assay: ELISA; IFNAR2-Fc captured on anti-human IgG1 plate; mutant in conditioned medium).
Protocol: (§1) The receptor binding properties of the Interferon-beta mutants described in C were assessed using two different binding assays. One assay measured binding of the interferon-beta mutants to a fusion protein, IFNAR2/Ig, comprising the extracellular domain of the human IFNAR2 receptor chain fused to part of the constant region of a human IgG. IFNAR2-Fc was expressed in chinese hamster ovary (CHO) cells and purified by protein A sepharose affinity chromatography according to the instructions of the manufacturer (Pierce Chem. Co., Rockford, Ill., catalog #20334). The binding of interferon-beta mutants to IFNAR2-Fc was measured in an ELISA format assay. ELISA plates were prepared by coating flat-bottomed 96 well plates overnight at 4° C. with 50 μl/well of mouse anti-human IgG1 monoclonal antibody (CDG5-AA9, Biogen, Inc.) at 10 μg/ml in coating buffer (50 mM NaHCO₃, 0.2 mM MgCl₂, 0.2 mM CaCl₂, pH 9.6). Plates were washed twice with PBS containing 0.05% Tween-20, and blocked with 0.5% non-fat dry milk in PBS for 1 hour at room temperature. After two more washes, 50 μl of 1 μg/ml IFNAR2-Fc in 0.5% milk in PBS containing 0.05% Tween-20 was added to each well and incubated for 1 hour at room temperature, and the plates were then washed twice more. Binding of the interferon-beta mutants to IFNAR2-Fc was measured by adding 50 μl/well mutant interferon-beta in conditioned media, serially diluted in Dulbecco's Modified Eagle's Medium (DMEM) supplemented with 10% fetal bovine serum, and incubating for 2 hours at 4° C. Dilutions of interferon-beta mutant typically ranged from approximately 1 μM down to 10 pM. After washing, interferon-beta bound to the plates was detected by adding 50 μl/well of a cocktail consisting of a 1:1000 dilution of a rabbit polyclonal anti-interferon antibody (#447) plus horseradish peroxidase (HRP)-labelled donkey anti-rabbit IgG (Jackson ImmunoResearch), and incubating for 15 minutes at 4° C. After two washes, HRP substrate was added, and the plate was incubated at 4° C. before being read on an ELISA plate reader at an absorbance of 450 nm. Data were plotted as absorbance versus the concentration of mutant interferon-beta, and the affinity for the binding of the mutant interferon-beta to IFNAR2-Fc was determined by fitting the data to a simple hyperbolic binding equation.

Row | Binder | binding result
1 | B1 | no binding
2 | B2 | no binding
3 | B3 | no binding
4 | B4 | no binding

These binders were tested against T1, IFNAR2/Ig fusion protein (IFNAR2 …) (assay: ELISA on captured IFNAR2-Fc; reference, value not given).
Protocol: The receptor binding properties of the Interferon-beta mutants described in C were assessed using two different binding assays. One assay measured binding of the interferon-beta mutants to a fusion protein, IFNAR2/Ig, comprising the extracellular domain of the human IFNAR2 receptor chain fused to part of the constant region of a human IgG. IFNAR2-Fc was expressed in chinese hamster ovary (CHO) cells and purified by protein A sepharose affinity chromatography according to the instructions of the manufacturer (Pierce Chem. Co., Rockford, Ill., catalog #20334). The binding of interferon-beta mutants to IFNAR2-Fc was measured in an ELISA format assay. […] Binding of the interferon-beta mutants to IFNAR2-Fc was measured by adding 50 μl/well mutant interferon-beta in conditioned media, serially diluted in Dulbecco's Modified Eagle's Medium (DMEM) supplemented with 10% fetal bovine serum, and incubating for 2 hours at 4° C. […] After washing, interferon-beta bound to the plates was detected by adding 50 μl/well of a cocktail consisting of a 1:1000 dilution of a rabbit polyclonal anti-interferon antibody (#447) plus horseradish peroxidase (HRP)-labelled donkey anti-rabbit IgG (Jackson ImmunoResearch), and incubating for 15 minutes at 4° C. After two washes, HRP substrate was added, and the plate was incubated at 4° C. before being read on an ELISA plate reader at an absorbance of 450 nm. […]

Row | Binder | binding result
5 | B5 | binds

What follows are binders tested against T1, IFNAR2/Ig fusion protein (IFNAR2 …) (assay: ELISA on captured IFNAR2-Fc).
Protocol: as §1

Row | Binder | EC50 relative to w.t. his-IFN-beta EC50
6 | B1 | > 500 fold of w.t. his-IFN-beta EC50
7 | B2 | > 500 fold of w.t. his-IFN-beta EC50
8 | B3 | > 500 fold of w.t. his-IFN-beta EC50
9 | B4 | > 500 fold of w.t. his-IFN-beta EC50
